Data from paper PMC9729729, “Development of anti-membrane type 1-matrix metalloproteinase nanobodies as immunoPET probes for triple negative breast cancer imaging” (Frontiers in Medicine, 2022).

B1: 3TPA14 displayed on phage (monoclonal phage clone) (VHH)
VHH: QVQLQESGGGLVQAGGSLRLSCAASGLILSGFSTGWFRQAPGKEREFLSTISSAGTRTYYADSVKGRFTISRDNAKNTVYLQMNRLKPEDAGVYYCTGYGRRSMPALRPEEWTYWGQGTQVTVSS
notes: also called 3TPA14 phage clone; source: E. coli TG1 with phagemid, VCS-M13 helper phage, culture supernatant
B2: [^68Ga]Ga-NOTA-3TPA14 (VHH)
VHH: B1 VHH
notes: also called radiolabeled-NOTA conjugate of 3TPA14; source: E. coli WK6 periplasm, purified, conjugated with p-SCN-Bn-NOTA and labelled with 68Ga, PD-10 purified
B3: nanobody 3TPA14 (CDR3 group 1), purified (VHH)
VHH: B1 VHH
notes: Llama-derived VHH selected by phage display against CAT-MT1-MMP; also called Nb 3TPA14; source: E. coli WK6 periplasm (pMECS), purified (IMAC HisTrap, SEC Superdex 75)
B4: 3CMP75 displayed on phage (monoclonal phage clone) (VHH)
VHH: QVQLQESGGGLVQAGGSLRLSCTASGRTFSSNAMAWFRLAPGKEREFVAAISGNGGSTTYADSVKGRVTISRDNAKNTVYLHMSSLKPEDTAVYYCNQRNFGRDGTLGDYWGNGTQVTVSS
notes: also called 3CMP75 phage clone; source: E. coli TG1 with phagemid, VCS-M13 helper phage, culture supernatant
B5: [^68Ga]Ga-NOTA-3CMP75 (VHH)
VHH: B4 VHH
notes: also called radiolabeled-NOTA conjugate of 3CMP75; source: E. coli WK6 periplasm, purified, conjugated with p-SCN-Bn-NOTA and labelled with 68Ga, PD-10 purified
B6: nanobody 3CMP75 (CDR3 group 6), purified (VHH)
VHH: B4 VHH
notes: Llama-derived VHH selected by phage display against CAT-MT1-MMP; also called Nb 3CMP75; 2CMP75 (as printed in two methods paragraphs); source: E. coli WK6 periplasm (pMECS), purified (IMAC HisTrap, SEC Superdex 75)

Columns and labels:
[1] = target: T1, catalytic domain of human MT1-MMP (residues 119-290) (Homo sapiens, UniProt P50281); test: ELISA; monoclonal phage ELISA; MaxiSorp plates coated with CAT-MT1-MMP, MT2-MMP or MT3-MMP at 4°C overnight (BSA as negative control); culture supernatants with phages applied; anti-M13-HRP, OPD, OD490; conditions: one partner purified
T1 construct: membrane type 1-matrix metalloproteinase (MT1-MMP), human, catalytic domain, residues 119-290, expressed from pET3a; also called CAT-MT1-MMP; catalytic domain of membrane type 1-matrix metalloproteinase

[2] = target: T1, catalytic domain of human MT1-MMP …; test: ELISA; MaxiSorp plates coated overnight at 4°C with CAT-MT1-MMP; blocked with 3% BSA in PBS; serial dilutions of nanobodies, 90 min at 37°C; HRP anti-HA mAb, TMB, OD450; conditions: both partners purified
[3] = target: extracellular domain (ed) of MT1-MMP, Ala21-Ser538, Arg108Pro (Homo sapiens (species ; …, UniProt P50281, Arg108Pro); test: SPR; edMT1-MMP amine-coupled on a CM5 chip (104 RU); nanobody 16-250 nM, 3 min at 30 μl/min, 30 min dissociation; HBS-EP+ buffer; 25°C; Biacore X100; 1:1 binding model; conditions: both partners purified

Binder	binding result [1]	binding result [2]	Kd [3] [nM]
B1	binds		
B2		binds	
B3		binds	15.8 ± 0.3
B4	binds		
B5		binds	
B6		binds	35 ± 3
